Laboratory results: publication doi:10.1101/2025.10.25.684501
pKd: −log10 of the molar value.

Biological target: reconstituted silk fibroin (RSF) labelled with DyLight 650 (Bombyx mori) (UniProt P05790)
Assay: MST

- pKd: 7.62
Substance: wild-type (WT) α-synuclein (from UniProt P37840 1-140) (natural protein)
